{"source": "patent US20230145060A1", "assay_in_all_cases": "cell-based or functional assay", "key": {"[1]": {"molecular_target": "HIV-1 Env of pseudovirus X2088 (HIV-1)"}, "[2]": {"molecular_target": "HIV-1 Env of pseudovirus T257 (HIV-1)"}, "[3]": {"molecular_target": "HIV-1 Env of pseudovirus PV0 (HIV-1)"}, "[4]": {"molecular_target": "HIV-1 Env of pseudovirus ZM106 (HIV-1)"}, "[5]": {"molecular_target": "HIV-1 Env of pseudovirus pCNE8 (HIV-1)"}, "[6]": {"molecular_target": "HIV-1 Env of pseudovirus 3817 (HIV-1)"}, "[7]": {"molecular_target": "HIV-1 Env of pseudovirus BG505 (HIV-1)"}, "[8]": {"molecular_target": "HIV-1 Env of pseudovirus ZM197 (HIV-1)"}, "[9]": {"molecular_target": "HIV-1 Env of pseudovirus X1632 (HIV-1)"}, "[10]": {"molecular_target": "HIV-1 Env of pseudovirus SF162 (HIV-1) (UniProt P19550)"}, "[11]": {"molecular_target": "HIV-1 Env of pseudovirus 278 (HIV-1)"}, "[12]": {"molecular_target": "HIV-1 Env of pseudovirus Du422 (HIV-1)"}, "[13]": {"molecular_target": "HIV-1 Env of pseudovirus JRCSF (HIV-1) (UniProt P20871)"}, "[14]": {"molecular_target": "HIV-1 Env of pseudovirus THRO (HIV-1)"}, "[15]": {"molecular_target": "HIV-1 Env of pseudovirus X2088 (HIV-1)", "remark": "listed apart in the source"}, "[16]": {"molecular_target": "HIV-1 Env of pseudovirus T257 (HIV-1)", "remark": "listed apart in the source"}, "[17]": {"molecular_target": "HIV-1 Env of pseudovirus PV0 (HIV-1)", "remark": "listed apart in the source"}, "[18]": {"molecular_target": "HIV-1 Env of pseudovirus ZM106 (HIV-1)", "remark": "listed apart in the source"}, "[19]": {"molecular_target": "HIV-1 Env of pseudovirus pCNE8 (HIV-1)", "remark": "listed apart in the source"}, "[20]": {"molecular_target": "HIV-1 Env of pseudovirus 3817 (HIV-1)", "remark": "listed apart in the source"}, "[21]": {"molecular_target": "HIV-1 Env of pseudovirus BG505 (HIV-1)", "remark": "listed apart in the source"}, "[22]": {"molecular_target": "HIV-1 Env of pseudovirus ZM197 (HIV-1)", "remark": "listed apart in the source"}, "[23]": {"molecular_target": "HIV-1 Env of pseudovirus X1632 (HIV-1)", "remark": "listed apart in the source"}, "[24]": {"molecular_target": "HIV-1 Env of pseudovirus SF162 (HIV-1) (UniProt P19550)", "remark": "listed apart in the source"}, "[25]": {"molecular_target": "HIV-1 Env of pseudovirus 278 (HIV-1)", "remark": "listed apart in the source"}, "[26]": {"molecular_target": "HIV-1 Env of pseudovirus Du422 (HIV-1)", "remark": "listed apart in the source"}, "[27]": {"molecular_target": "HIV-1 Env of pseudovirus JRCSF (HIV-1) (UniProt P20871)", "remark": "listed apart in the source"}, "[28]": {"molecular_target": "HIV-1 Env of pseudovirus THRO (HIV-1)", "remark": "listed apart in the source"}}, "note": "Like-named read-outs stand apart in the source and are kept apart here."}
{"substance": "N49P7 IgG (antibody)", "values": [{"measurement": "IC50, neutralization of X2088 PsV", "setting": "[1]", "result": 0.38, "unit": "µg/mL"}, {"measurement": "IC50, neutralization of T257 PsV", "setting": "[2]", "result": 1.2, "unit": "µg/mL"}, {"measurement": "IC50, neutralization of PV0 PsV", "setting": "[3]", "result": 0.28, "unit": "µg/mL"}, {"measurement": "IC50, neutralization of ZM106 PsV", "setting": "[4]", "result": 0.18, "unit": "µg/mL"}, {"measurement": "IC50, neutralization of pCNE8 PsV", "setting": "[5]", "result": 0.28, "unit": "µg/mL"}, {"measurement": "IC50, neutralization of 3817 PsV", "setting": "[6]", "result": 3.3, "unit": "µg/mL"}, {"measurement": "IC50, neutralization of BG505 PsV", "setting": "[7]", "result": 0.21, "unit": "µg/mL"}, {"measurement": "IC50, neutralization of ZM197 PsV", "setting": "[8]", "result": 0.58, "unit": "µg/mL"}, {"measurement": "IC50, neutralization of X1632 PsV", "setting": "[9]", "result": "> 50", "unit": "µg/mL"}, {"measurement": "IC50, neutralization of SF162 PsV", "setting": "[10]", "result": 0.15, "unit": "µg/mL"}, {"measurement": "IC50, neutralization of 278 PsV", "setting": "[11]", "result": "> 50", "unit": "µg/mL"}, {"measurement": "IC50, neutralization of Du422 PsV", "setting": "[12]", "result": 10, "unit": "µg/mL"}, {"measurement": "IC50, neutralization of JRCSF PsV", "setting": "[13]", "result": 0.12, "unit": "µg/mL"}, {"measurement": "IC50, neutralization of THRO PsV", "setting": "[14]", "result": 7.5, "unit": "µg/mL"}, {"measurement": "IC50, neutralization of X2088 PsV", "setting": "[15]", "result": 2.5, "unit": "nM"}, {"measurement": "IC50, neutralization of T257 PsV", "setting": "[16]", "result": 8.3, "unit": "nM"}, {"measurement": "IC50, neutralization of PV0 PsV", "setting": "[17]", "result": 1.9, "unit": "nM"}, {"measurement": "IC50, neutralization of ZM106 PsV", "setting": "[18]", "result": 1.2, "unit": "nM"}, {"measurement": "IC50, neutralization of pCNE8 PsV", "setting": "[19]", "result": 1.8, "unit": "nM"}, {"measurement": "IC50, neutralization of 3817 PsV", "setting": "[20]", "result": 22, "unit": "nM"}, {"measurement": "IC50, neutralization of BG505 PsV", "setting": "[21]", "result": 1.4, "unit": "nM"}, {"measurement": "IC50, neutralization of ZM197 PsV", "setting": "[22]", "result": 3.9, "unit": "nM"}, {"measurement": "IC50, neutralization of X1632 PsV", "setting": "[23]", "result": "> 100", "unit": "nM"}, {"measurement": "IC50, neutralization of SF162 PsV", "setting": "[24]", "result": 1, "unit": "nM"}, {"measurement": "IC50, neutralization of 278 PsV", "setting": "[25]", "result": "> 100", "unit": "nM"}, {"measurement": "IC50, neutralization of Du422 PsV", "setting": "[26]", "result": 66, "unit": "nM"}, {"measurement": "IC50, neutralization of JRCSF PsV", "setting": "[27]", "result": 0.85, "unit": "nM"}, {"measurement": "IC50, neutralization of THRO PsV", "setting": "[28]", "result": 50, "unit": "nM"}]}
